In patent publication US20260166085A1 (BEAM THERAPEUTICS, published 2026):

What was measured:
[1] = molecular target: T1, CC128 variant of CD117 (Y259C + N260D) purified protein (human, UniProt P10721 26-520, limits assumed); test: binding kinetics grade, FIGS. 55A-55C
T1 construct: also called CC128-edited CD117 as purified protein

[2] = molecular target: CC200 variant of CD117 (S261G) purified protein (human, UniProt P10721 26-520, limits assumed); test: binding kinetics grade, FIGS. 55A-55C
[3] = molecular target: T2, Wild type CD117 purified protein (human, UniProt P10721 26-520, limits assumed); test: binding kinetics, FIGS. 45A-45K
T2 construct: Protein used in BLI/kinetics and cryo-EM; also called wt CD117; Wt CD117
T2 sequence (P10721 26-520 limits assumed): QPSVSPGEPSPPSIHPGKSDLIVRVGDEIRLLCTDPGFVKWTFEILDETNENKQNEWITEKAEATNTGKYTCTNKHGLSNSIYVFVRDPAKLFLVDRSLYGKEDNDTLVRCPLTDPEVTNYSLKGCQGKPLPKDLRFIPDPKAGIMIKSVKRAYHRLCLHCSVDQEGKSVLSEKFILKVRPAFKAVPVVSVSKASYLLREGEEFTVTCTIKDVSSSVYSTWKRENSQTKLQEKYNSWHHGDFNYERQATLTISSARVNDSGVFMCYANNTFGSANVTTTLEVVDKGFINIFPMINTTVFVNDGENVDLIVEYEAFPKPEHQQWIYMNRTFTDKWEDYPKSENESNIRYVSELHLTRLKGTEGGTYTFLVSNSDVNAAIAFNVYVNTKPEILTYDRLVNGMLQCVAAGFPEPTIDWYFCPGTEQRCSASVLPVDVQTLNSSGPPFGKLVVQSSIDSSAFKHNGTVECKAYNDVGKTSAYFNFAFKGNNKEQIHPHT

T1 sequence (P10721 26-520 Y259C/N260D limits assumed): as the sequence (P10721 26-520 limits assumed) above, with Y234C, N235D counted along it
Chain of CC200 variant of CD117 (S261G) purified protein (P10721 26-520 S261G limits assumed): as the sequence (P10721 26-520 limits assumed) above, with S236G counted along it

Binder	binding result [1]	binding result [2]	Kd [3] [nM]	koff [3] [s⁻¹]	kon [3] [M⁻¹ s⁻¹]
ABTx052 variant VL_F91T (antibody, human IgG1, V domains shown) VH: QVQLVQSGAAVKKPGESLKISCKGSGYRFTSYWIGWVRQMPGKGLEWMGIIYPGDSDTRYSPSFQGQVTISAGKSISTAYLQWSSLKASDTAMYYCARHGRGYNGYEGAFDIWGQGTMVTVSS VL: AIQLTQSPSSLSASVGDRVTITCRASQGISSALAWYQQKPGKAPKLLIYDASSLESGVPSRFSGSGSGTDFTLTISSLQPEDFATYYCQQTNSYPLTFGGGTKVEIK			0.191	0.000104	543000
ABTx052 variant VH_G105A (antibody, human IgG1, V domains shown) VH: QVQLVQSGAAVKKPGESLKISCKGSGYRFTSYWIGWVRQMPGKGLEWMGIIYPGDSDTRYSPSFQGQVTISAGKSISTAYLQWSSLKASDTAMYYCARHGRGYNAYEGAFDIWGQGTMVTVSS VL: AIQLTQSPSSLSASVGDRVTITCRASQGISSALAWYQQKPGKAPKLLIYDASSLESGVPSRFSGSGSGTDFTLTISSLQPEDFATYYCQQFNSYPLTFGGGTKVEIKR			0.254	0.000153	601000
ABTx263 (antibody, human IgG1, kappa, V domains shown) VH: QVQLVQSGAAVKKPGESLKISCKGSGYRFTSYWIGWVRQMPGKGLEWMGIIYPGDSDTKYSPSFQGQVTISAGKSISTAYLQWSSLKASDTAMYYCARHGRGYDGYDGAFDIWGQGTMVTVSS VL: AIQLTQSPSSLSASVGDRVTITCRASQGISSALAWYQQKPGKAPKLLIYDASSLESGVPSRFSGSGSGTDFTLTISSLQPEDFATYYCQQVYSYPLTFGGGTKVEIKR	no binding	no binding			
ABTx265 (antibody, human IgG1, kappa, V domains shown) VH: QVQLVQSGAAVKKPGESLKISCKGSGYRFTSYWIGWVRQMPGKGLEWMGIIYPGDSDTKYSPSFQGQVTISAGKSISTAYLQWSSLKASDTAMYYCARHGRGYDGYDGAFDIWGQGTMVTVSS VL: AIQLTQSPSSLSASVGDRVTITCRASQGISSALAWYQQKPGKAPKLLIYDASSLESGVPSRFSGSGSGTDFTLTISSLQPEDFATYYCQQTRSYPLTFGGGTKVEIKR	no binding	no binding			
ABTx269 (antibody, human IgG1, kappa, V domains shown) VH: QVQLVQSGAAVKKPGESLKISCKGSGYRFTSYWIGWVRQMPGKGLEWMGIIYPGDSDTKYSPSFQGQVTISAGKSISTAYLQWSSLKASDTAMYYCARHGRGYDGYEGAFDIWGQGTMVTVSS VL: AIQLTQSPSSLSASVGDRVTITCRASQGISSALAWYQQKPGKAPKLLIYDASSLESGVPSRFSGSGSGTDFTLTISSLQPEDFATYYCQQVYSYPLTFGGGTKVEIKR	no binding	no binding			
ABTx267 (antibody, human IgG1, kappa, V domains shown) VH: QVQLVQSGAAVKKPGESLKISCKGSGYRFTSYWIGWVRQMPGKGLEWMGIIYPGDSDTKYSPSFQGQVTISAGKSISTAYLQWSSLKASDTAMYYCARHGRGYDAYDGAFDIWGQGTMVTVSS VL: AIQLTQSPSSLSASVGDRVTITCRASQGISSALAWYQQKPGKAPKLLIYDASSLESGVPSRFSGSGSGTDFTLTISSLQPEDFATYYCQQTNSSPLTFGGGTKVEIKR	no binding	no binding			
ABTx258 (antibody, human IgG1, kappa, V domains shown) VH: QVQLVQSGAAVKKPGESLKISCKGSGYRFTSYWIGWVRQMPGKGLEWMGIIYPGDSDTKYSPSFQGQVTISAGKSISTAYLQWSSLKASDTAMYYCARHGRGYDAYEGAFDIWGQGTMVTVSS VL: AIQLTQSPSSLSASVGDRVTITCRASQGISSALAWYQQKPGKAPKLLIYDASSLESGVPSRFSGSGSGTDFTLTISSLQPEDFATYYCQQVRSYPLTFGGGTKVEIKR	no binding	no binding			
ABTx268 (antibody, human IgG1, kappa, V domains shown) VH: QVQLVQSGAAVKKPGESLKISCKGSGYRFTSYWIGWVRQMPGKGLEWMGIIYPGDSDTKYSPSFQGQVTISAGKSISTAYLQWSSLKASDTAMYYCARHGRGYDGYEGAFDIWGQGTMVTVSS VL: AIQLTQSPSSLSASVGDRVTITCRASQGISSALAWYQQKPGKAPKLLIYDASSLESGVPSRFSGSGSGTDFTLTISSLQPEDFATYYCQQVNSYPLTFGGGTKVEIKR	no binding	no binding			
ABTx052 variant VL_S93G (antibody, human IgG1, V domains shown) VH: QVQLVQSGAAVKKPGESLKISCKGSGYRFTSYWIGWVRQMPGKGLEWMGIIYPGDSDTRYSPSFQGQVTISAGKSISTAYLQWSSLKASDTAMYYCARHGRGYNGYEGAFDIWGQGTMVTVSS VL: AIQLTQSPSSLSASVGDRVTITCRASQGISSALAWYQQKPGKAPKLLIYDASSLESGVPSRFSGSGSGTDFTLTISSLQPEDFATYYCQQFNGYPLTFGGGTKVEIK			0.0716	4.81e-05	671000

Other lines, results leading:

binding result [1]	binding result [2]	Kd [3] [nM]	koff [3] [s⁻¹]	kon [3] [M⁻¹ s⁻¹]	Binder
no binding	no binding				ABTx251 (antibody, human IgG1, kappa, V domains shown) VH: QVQLVQSGAAVKKPGESLKISCKGSGYRFTSYWIGWVRQMPGKGLEWMGIIYPGDSDTRYSPSFQGQVTISAGKSISTAYLQWSSLKASDTAMYYCARHGRGYDGYEGAFDIWGQGTMVTVSS VL: AIQLTQSPSSLSASVGDRVTITCRASQGISSALAWYQQKPGKAPKLLIYDASSLESGVPSRFSGSGSGTDFTLTISSLQPEDFATYYCQQFYSYPLTFGGGTKVEIKR
		0.495	0.000342	691000	ABTx052 variant VH_N104D (antibody, human IgG1, V domains shown) VH: QVQLVQSGAAVKKPGESLKISCKGSGYRFTSYWIGWVRQMPGKGLEWMGIIYPGDSDTRYSPSFQGQVTISAGKSISTAYLQWSSLKASDTAMYYCARHGRGYDGYEGAFDIWGQGTMVTVSS VL: AIQLTQSPSSLSASVGDRVTITCRASQGISSALAWYQQKPGKAPKLLIYDASSLESGVPSRFSGSGSGTDFTLTISSLQPEDFATYYCQQFNSYPLTFGGGTKVEIKR
no binding	no binding				ABTx273 (antibody, human IgG1, kappa, V domains shown) VH: QVQLVQSGAAVKKPGESLKISCKGSGYRFTSYWIGWVRQMPGKGLEWMGIIYPGDSDTRYSPSFQGQVTISAGKSISTAYLQWSSLKASDTAMYYCARHGRGYDGYEGAFDIWGQGTMVTVSS VL: AIQLTQSPSSLSASVGDRVTITCRASQGISSALAWYQQKPGKAPKLLIYDASSLESGVPSRFSGSGSGTDFTLTISSLQPEDFATYYCQQFRSYPLTFGGGTKVEIKR
no binding	no binding				ABTx261 (antibody, human IgG1, kappa, V domains shown) VH: QVQLVQSGAAVKKPGESLKISCKGSGYRFTSYWIGWVRQMPGKGLEWMGIIYPGDSDTKYSPSFQGQVTISAGKSISTAYLQWSSLKASDTAMYYCARHGRGYDAYEGAFDIWGQGTMVTVSS VL: AIQLTQSPSSLSASVGDRVTITCRASQGISSALAWYQQKPGKAPKLLIYDASSLESGVPSRFSGSGSGTDFTLTISSLQPEDFATYYCQQTRSYPLTFGGGTKVEIKR
no binding	no binding				ABTx262 (antibody, human IgG1, kappa, V domains shown) VH: QVQLVQSGAAVKKPGESLKISCKGSGYRFTSYWIGWVRQMPGKGLEWMGIIYPGDSDTRYSPSFQGQVTISAGKSISTAYLQWSSLKASDTAMYYCARHGRGYDAYEGAFDIWGQGTMVTVSS VL: AIQLTQSPSSLSASVGDRVTITCRASQGISSALAWYQQKPGKAPKLLIYDASSLESGVPSRFSGSGSGTDFTLTISSLQPEDFATYYCQQFRSSPLTFGGGTKVEIKR
no binding	no binding				ABTx270 (antibody, human IgG1, kappa, V domains shown) VH: QVQLVQSGAAVKKPGESLKISCKGSGYRFTSYWIGWVRQMPGKGLEWMGIIYPGDSDTRYSPSFQGQVTISAGKSISTAYLQWSSLKASDTAMYYCARHGRGYDAYEGAFDIWGQGTMVTVSS VL: AIQLTQSPSSLSASVGDRVTITCRASQGISSALAWYQQKPGKAPKLLIYDASSLESGVPSRFSGSGSGTDFTLTISSLQPEDFATYYCQQVRSYPLTFGGGTKVEIKR
no binding	no binding				ABTx272 (antibody, human IgG1, kappa, V domains shown) VH: QVQLVQSGAAVKKPGESLKISCKGSGYRFTSYWIGWVRQMPGKGLEWMGIIYPGDSDTKYSPSFQGQVTISAGKSISTAYLQWSSLKASDTAMYYCARHGRGYDGYDGAFDIWGQGTMVTVSS VL: AIQLTQSPSSLSASVGDRVTITCRASQGISSALAWYQQKPGKAPKLLIYDASSLESGVPSRFSGSGSGTDFTLTISSLQPEDFATYYCQQVRSYPLTFGGGTKVEIKR
no binding	no binding				ABTx256 (antibody, human IgG1, kappa, V domains shown) VH: QVQLVQSGAAVKKPGESLKISCKGSGYRFTSYWIGWVRQMPGKGLEWMGIIYPGDSDTRYSPSFQGQVTISAGKSISTAYLQWSSLKASDTAMYYCARHGRGYDAYEGAFDIWGQGTMVTVSS VL: AIQLTQSPSSLSASVGDRVTITCRASQGISSALAWYQQKPGKAPKLLIYDASSLESGVPSRFSGSGSGTDFTLTISSLQPEDFATYYCQQTYSYPLTFGGGTKVEIKR
